Results reported in patent US10335489B2, “Injectable solution at pH 7 comprising at least one basal insulin the pi of which is between 5.8 and 8.5 and a substituted co-polyamino acid” (ADOCIA, priority 2012, dated 2019).

Assay: Precipitation of insulin glargine on addition to PBS/BSA mixture simulating the subcutaneous medium, centrifugation, RP-HPLC assay of supernatant
Type: physicochemical
Conditions: co-polyamino acid 1/insulin glargine/prandial insulin 75/25 composition added to 2 ml PBS/BSA
Procedure: The PBS/BSA mixture simulates the composition of the subcutaneous medium.
Centrifugation at 4000 rpm is carried out in order to separate the precipitate from the supernatant.
(§1) The PBS/BSA mixture simulates the composition of the subcutaneous medium. A precipitate appears.
as §1
This composition is added to 2 ml of PBS containing 20 mg/ml of BSA (bovine serum albumin). The PBS/BSA mixture simulates the composition of the subcutaneous medium. A precipitate appears. Centrifugation at 4000 rpm is carried out in order to separate the precipitate from the supernatant. […]
The PBS/BSA mixture simulates the composition of the subcutaneous medium. A precipitate appears. Centrifugation at 4000 rpm is carried out in order to separate the precipitate from the supernatant.
as §1

Substance: Human insulin (ActRapid ®): commercial solution of human insulin at 100 IU/ml
- Precipitation of insulin glargine: yes
